Several values for one entry are separate records, joined by “and”; a condition that tells them apart may be missing. Equal entries are not always repeated. Where two headings read alike, the source gives them in different places.
Experiments:
[1] = molecular target: T1, mouse LTBP3-proTGFβ1 complex (mouse, UniProt Q61810 41-1245; P04202 30-390, limits assumed); assay: Octet BLI, IgG captured
T1 construct: Exemplary entries; also called Mo LTBP3-proTGFβ1; Murine LTBP3 proTGFb1
Method: (§1) Binding affinities of the optimized antibodies were measured by Octet against human LTBP1-proTGFβ1, human LTBP3-proTGFβ1, mouse LTBP1-proTGFβ1, mouse LTBP3-proTGFβ1, and GARP-proTGFβ1 complexes, essentially as described in Example 6. […] The antigens were allowed to associate for 3 minutes followed by a 5-minute dissociation. Kinetics buffer (ForteBio®) was used throughout the experiment, and KD was determined using a 1:1 fitting model for each antibody antigen pair.

[2] = molecular target: T2, mouse LTBP1-proTGFβ1 complex (mouse, UniProt Q8CG19 339-1712; P04202 30-390); assay: Octet BLI, IgG captured
T2 construct: Exemplary entries; In the cell assays expressed from mouse LTBP1S and mouse proTGFb1 plasmids in LN229 cells; also called Mo LTBP1-proTGFβ1; MuLTBP1-ProTGFb1
T2 sequence (Q8CG19 339-1712 limits assumed, chain 1 of 2): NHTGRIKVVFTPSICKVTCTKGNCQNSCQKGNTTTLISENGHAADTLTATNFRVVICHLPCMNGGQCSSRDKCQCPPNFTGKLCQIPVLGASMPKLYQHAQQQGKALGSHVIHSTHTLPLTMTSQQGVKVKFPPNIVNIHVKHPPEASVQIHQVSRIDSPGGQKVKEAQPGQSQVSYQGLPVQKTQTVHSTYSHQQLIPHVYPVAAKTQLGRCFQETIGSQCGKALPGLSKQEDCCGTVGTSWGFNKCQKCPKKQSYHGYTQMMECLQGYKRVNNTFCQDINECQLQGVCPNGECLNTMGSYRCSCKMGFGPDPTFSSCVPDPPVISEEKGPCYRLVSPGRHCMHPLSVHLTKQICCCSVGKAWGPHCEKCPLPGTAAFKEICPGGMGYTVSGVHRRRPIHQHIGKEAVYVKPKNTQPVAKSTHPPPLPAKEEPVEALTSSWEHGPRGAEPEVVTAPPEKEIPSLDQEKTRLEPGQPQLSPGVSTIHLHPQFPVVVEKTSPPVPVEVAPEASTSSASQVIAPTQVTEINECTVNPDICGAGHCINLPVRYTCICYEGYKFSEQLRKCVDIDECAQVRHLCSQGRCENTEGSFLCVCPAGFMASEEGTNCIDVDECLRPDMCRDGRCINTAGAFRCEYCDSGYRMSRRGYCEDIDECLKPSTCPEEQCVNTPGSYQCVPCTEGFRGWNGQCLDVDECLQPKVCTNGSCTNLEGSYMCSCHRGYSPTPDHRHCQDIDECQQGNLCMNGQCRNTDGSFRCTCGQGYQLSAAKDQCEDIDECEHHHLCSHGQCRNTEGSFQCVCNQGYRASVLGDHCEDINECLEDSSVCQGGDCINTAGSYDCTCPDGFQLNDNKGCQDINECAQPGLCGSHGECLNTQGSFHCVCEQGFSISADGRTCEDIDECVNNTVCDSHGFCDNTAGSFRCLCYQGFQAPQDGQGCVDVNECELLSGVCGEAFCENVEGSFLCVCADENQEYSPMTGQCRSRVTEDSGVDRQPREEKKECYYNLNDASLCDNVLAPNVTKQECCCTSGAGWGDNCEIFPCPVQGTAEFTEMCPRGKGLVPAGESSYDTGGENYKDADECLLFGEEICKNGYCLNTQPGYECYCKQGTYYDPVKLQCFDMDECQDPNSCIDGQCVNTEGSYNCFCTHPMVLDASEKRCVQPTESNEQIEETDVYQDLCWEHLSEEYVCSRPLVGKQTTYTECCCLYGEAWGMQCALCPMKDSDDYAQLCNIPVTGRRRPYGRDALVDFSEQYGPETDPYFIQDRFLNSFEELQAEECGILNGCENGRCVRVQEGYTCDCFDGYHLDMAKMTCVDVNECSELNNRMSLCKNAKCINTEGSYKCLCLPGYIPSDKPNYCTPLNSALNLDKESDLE
T2 sequence (P04202 30-390 limits assumed, chain 2 of 2): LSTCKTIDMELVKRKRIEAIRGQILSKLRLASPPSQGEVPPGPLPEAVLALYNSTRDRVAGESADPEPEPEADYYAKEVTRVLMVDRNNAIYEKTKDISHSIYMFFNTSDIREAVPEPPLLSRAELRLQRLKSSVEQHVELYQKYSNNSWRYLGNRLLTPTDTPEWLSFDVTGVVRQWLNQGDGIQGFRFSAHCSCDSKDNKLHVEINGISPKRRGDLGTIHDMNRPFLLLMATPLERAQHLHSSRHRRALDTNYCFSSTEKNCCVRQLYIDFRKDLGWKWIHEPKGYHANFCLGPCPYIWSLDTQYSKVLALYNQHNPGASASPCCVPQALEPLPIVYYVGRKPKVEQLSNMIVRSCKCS
Method: as §1

[3] = molecular target: T3, human LTBP3-proTGFβ1 complex (human, UniProt Q9NS15 44-1303; P01137 30-390, limits assumed); assay: Octet BLI, IgG captured
T3 construct: Exemplary entries; also called Hu LTBP3-proTGFβ1; huLTBP3 proTGFb1
Method: as §1

[4] = molecular target: T4, human LTBP1-proTGFβ1 complex (human, UniProt Q14766 347-1721; P01137 30-390); assay: Octet BLI, IgG captured
T4 construct: Large latent complex: one presenting molecule disulfide-linked to a proTGFβ1 dimer; also called Hu LTBP1-proTGFβ1; huLTBP1 proTGFβ1
Method: as §1

[5] = molecular target: T2, mouse LTBP1-proTGFβ1 complex; assay: cell-based or functional assay
[6] = molecular target: T5, LTBP-proTGFβ1: transfected human proTGFβ1 presented by endogenous LTBP1/3 of LN229 cells (human); assay: cell-based or functional assay
T5 sequence (P01137 30-390): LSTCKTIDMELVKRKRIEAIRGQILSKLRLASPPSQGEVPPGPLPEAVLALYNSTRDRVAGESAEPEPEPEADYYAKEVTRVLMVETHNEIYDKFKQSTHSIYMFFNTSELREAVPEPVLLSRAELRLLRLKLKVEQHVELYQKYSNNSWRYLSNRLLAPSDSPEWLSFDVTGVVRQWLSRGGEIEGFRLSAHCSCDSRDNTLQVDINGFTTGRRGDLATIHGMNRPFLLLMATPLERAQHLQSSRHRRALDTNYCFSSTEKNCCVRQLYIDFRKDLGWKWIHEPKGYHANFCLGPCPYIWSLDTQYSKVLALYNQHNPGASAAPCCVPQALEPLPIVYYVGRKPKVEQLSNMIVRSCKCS

[7] = molecular target: T6, human GARP-proTGFβ1 complex (human, UniProt Q14392 18-627; P01137 30-390, limits assumed); assay: Octet BLI, IgG captured
T6 construct: Exemplary entries; also called Hu GARP-proTGFβ1; huGARP proTGFb1
T6 sequence (Q14392 18-627 limits assumed, chain 1 of 2): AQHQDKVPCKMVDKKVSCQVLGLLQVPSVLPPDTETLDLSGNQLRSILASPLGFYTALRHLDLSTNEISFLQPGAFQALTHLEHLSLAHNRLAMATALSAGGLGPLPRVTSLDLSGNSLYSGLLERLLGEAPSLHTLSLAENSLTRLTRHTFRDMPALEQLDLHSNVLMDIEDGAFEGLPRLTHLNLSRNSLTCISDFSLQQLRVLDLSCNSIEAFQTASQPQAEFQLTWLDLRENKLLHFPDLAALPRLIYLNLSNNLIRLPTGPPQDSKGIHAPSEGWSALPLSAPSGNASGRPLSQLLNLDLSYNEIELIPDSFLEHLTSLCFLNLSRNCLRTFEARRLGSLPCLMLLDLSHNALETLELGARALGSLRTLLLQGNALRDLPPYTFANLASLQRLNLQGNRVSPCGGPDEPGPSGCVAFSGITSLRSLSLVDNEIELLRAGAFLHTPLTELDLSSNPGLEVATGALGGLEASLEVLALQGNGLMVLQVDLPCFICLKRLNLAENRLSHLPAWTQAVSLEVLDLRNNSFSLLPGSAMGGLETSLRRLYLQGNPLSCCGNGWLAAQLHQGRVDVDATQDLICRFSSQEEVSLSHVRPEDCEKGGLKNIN
T6 sequence (P01137 30-390 limits assumed, chain 2 of 2): as the sequence (P01137 30-390) above
Method: as §1

[8] = molecular target: T2, mouse LTBP1-proTGFβ1 complex; assay: cell-based or functional assay; remark: listed apart in the source
[9] = molecular target: T5, LTBP-proTGFβ1: transfected human …; assay: cell-based or functional assay; remark: listed apart in the source
[10] = molecular target: T6, human GARP-proTGFβ1 complex; assay: Octet BLI, Table 10 (repeats Table 9)
Method: as §1
Table 9 presents the binding profile and affinity data for the indicated LTBP complex-specific antibodies (IgG1-agly) identified from the light chain optimization cycle 3, determined by Octet.

[11] = molecular target: T2, mouse LTBP1-proTGFβ1 complex; assay: cell-based or functional assay; remark: listed apart in the source
[12] = molecular target: T5, LTBP-proTGFβ1: transfected human …; assay: cell-based or functional assay; remark: listed apart in the source
[13] = molecular target: T6, human GARP-proTGFβ1 complex; assay: Octet (bio-layer interferometry), response at 200 nM antigen; 0.1 nm cutoff designates meaningful binding
Method: This experiment was performed at 200, 100, 50, and 25 nM human GARP proTGFb1 and human LTBP1 proTGFbl. […] Surface plasmon resonance (SPR)-based assays

T1 sequence (Q61810 other isoform, or with tags, fused parts or gaps limits assumed, chain 1 of 2): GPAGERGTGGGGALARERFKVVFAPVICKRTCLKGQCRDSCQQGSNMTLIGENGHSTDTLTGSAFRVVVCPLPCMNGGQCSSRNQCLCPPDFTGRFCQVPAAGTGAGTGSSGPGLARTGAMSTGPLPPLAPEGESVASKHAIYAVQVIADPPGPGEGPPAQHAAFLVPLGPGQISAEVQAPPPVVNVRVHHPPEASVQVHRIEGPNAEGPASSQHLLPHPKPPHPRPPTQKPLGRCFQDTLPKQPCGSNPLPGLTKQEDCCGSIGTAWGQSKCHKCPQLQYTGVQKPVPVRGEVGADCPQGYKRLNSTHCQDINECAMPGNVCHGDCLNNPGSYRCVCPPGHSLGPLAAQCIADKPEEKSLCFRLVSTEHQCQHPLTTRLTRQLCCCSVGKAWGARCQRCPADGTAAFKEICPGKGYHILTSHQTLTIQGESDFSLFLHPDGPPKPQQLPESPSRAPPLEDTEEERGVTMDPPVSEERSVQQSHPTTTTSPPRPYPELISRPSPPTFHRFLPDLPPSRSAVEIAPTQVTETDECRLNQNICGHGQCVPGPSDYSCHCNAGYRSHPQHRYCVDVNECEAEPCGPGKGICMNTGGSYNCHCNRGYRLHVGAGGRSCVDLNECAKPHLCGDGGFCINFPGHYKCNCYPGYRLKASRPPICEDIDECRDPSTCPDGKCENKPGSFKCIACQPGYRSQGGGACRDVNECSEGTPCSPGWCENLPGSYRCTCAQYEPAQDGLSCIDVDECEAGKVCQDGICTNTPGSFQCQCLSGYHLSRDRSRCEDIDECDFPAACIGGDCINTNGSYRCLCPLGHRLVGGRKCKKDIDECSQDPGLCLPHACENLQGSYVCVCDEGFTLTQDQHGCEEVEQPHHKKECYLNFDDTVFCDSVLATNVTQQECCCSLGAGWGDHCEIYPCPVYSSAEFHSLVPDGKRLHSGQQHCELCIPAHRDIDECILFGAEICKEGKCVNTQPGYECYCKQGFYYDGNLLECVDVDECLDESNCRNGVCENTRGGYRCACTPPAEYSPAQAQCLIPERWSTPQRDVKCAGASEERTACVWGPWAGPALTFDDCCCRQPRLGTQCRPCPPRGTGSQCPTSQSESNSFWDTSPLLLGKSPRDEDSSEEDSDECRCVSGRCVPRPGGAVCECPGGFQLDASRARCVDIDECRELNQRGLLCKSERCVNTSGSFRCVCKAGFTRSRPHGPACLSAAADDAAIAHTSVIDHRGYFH
T1 sequence (P04202 30-390 limits assumed, chain 2 of 2): as the sequence (P04202 30-390 limits assumed, chain 2 of 2) above

Row | Binder | Kd [1] [nM] | Kd [2] [nM] | Kd [3] [nM] | koff [3] [s⁻¹] | kon [3] [M⁻¹ s⁻¹] | Kd [4] [nM] | koff [4] [s⁻¹] | kon [4] [M⁻¹ s⁻¹] | IC50, mLTBP1 assay (CAGA12 luciferase) [5] [nM] | IC50, endogenous hLTBP assay (CAGA12 luciferase) [6] [nM] | Kd [7] [nM] | IC50, mLTBP1 assay (CAGA12 luciferase) [8] [nM] | IC50, endogenous hLTBP assay (CAGA12 luciferase) [9] | Kd [10] [nM] | IC50, mLTBP1 assay (CAGA12 luciferase) [11] [nM] | IC50, endogenous hLTBP assay (CAGA12 luciferase) [12] [nM] | binding result [13]
1 | SR-AB63 (antibody, IgG1, V domains shown, Cycle 3, lineage SR-AB26) VH: QLQLQESGPGLVKPSETLSLTCTVSGGSIRSSSYYWGWIRQPPGKGLEWIGSISYSATTYYNPSLKSRVTISVDTSKNQFSLKLSSVTAADTAVYYCAGDPSYDSIAGMQVWGQGTTVTVSS VL: DIQLTQSPSSLSASVGDRVTITCRASQSISSYLNWYQQKPGKAPKLLIYAASNLQSGVPSRFSGSGSGTDFTLTISSLQPEDFATYYCQQSFDWPLTFGGGTKVEIK | 2 | 1.09 | 0.494 | 7.84e-05 | 159000 | 0.611 | 7.24e-05 | 118000 | 0.207 | 1.78 |  |  |  |  |  |  | 
2 | SR-AB31 (antibody, IgG1, V domains shown, Cycle 3, lineage SR-AB22) VH: QVQLVESGGGVVQPGRSLRLSCAASGFTFRSYVMHWVRQAPGKGLEWVAVISHEGSLKYYADSVKGRFTISRDNSKNTLYLQMNSLRAEDTAVYYCAVPRIAARRGGFGYWGQGTLVTVSS VL: NFMLTQPHSVSESPGKTVTISCTRSSGNIDNNYVQWYQQRPGSSPTTVIYEDNQRPSGVPDRFSGSIDSSSNSASLTISGLKTEDEADYYCQSYDFNNQGVVFGGGTKLTVL | 0.589 | 0.682 | 0.221 | 6.81e-05 | 308000 | 0.412 | 9.89e-05 | 240000 |  |  | 11.2 | 0.431 | 1.26 nM and 1.56 nM | 11.2 |  |  | 
3 | SR-AB34 (antibody, IgG1, V domains shown, Cycle 3, lineage SR-AB22) VH: QVQLVESGGGVVQPGRSLRLSCAASGFTFRSYVMHWVRQAPGKGLEWVAVISHEGSLKYYADSVKGRFTISRDNSKNTLYLQMNSLRAEDTAVYYCAVPRIAARRGGFGYWGQGTLVTVSS VL: NFMLTQPHSVSESPGKTVTISCTRSSGNIDNNYVQWYQQRPGSSPTTVIYEDNQRPSGVPDRFSGSIDSSSNSASLTISGLKTEDEADYYCQSYDYDAQGVVFGGGTKLTVL | 0.45 | 0.417 | 0.179 | 6.68e-05 | 372000 | 0.231 | 6e-05 | 259000 |  |  | 73.5 | 0.423 | 0.909 nM | 73.5 |  |  | 
4 | SR-AB44 (antibody, IgG1, V domains shown, Cycle 3, lineage SR-AB23) VH: QVQLVESGGGVVQPGRSLRLSCAASGFTFRSYVMHWVRQAPGKGLEWVAVISHEGSLKYYADSVKGRFTISRDNSKNTLYLQMNSLRAEDTAVYYCARPRIAARRGGFGYWGQGTLVTVSS VL: NFMLTQPHSVSESPGKTVTISCTRSHGNIDDNYVQWYQQRPGSSPTTVIYEDNVRPSGVPDRFSGSIDSSSNSASLTISGLKTEDEADYYCQSYDSDNQLVVFGGGTKLTVL | 0.407 | 0.21 | 0.146 | 6e-05 | 410000 | 0.214 | 6e-05 | 280000 |  |  | 212 |  |  | 212 | 0.3 | 1.51 | 
5 | SR-AB39 (antibody, IgG1, V domains shown, Cycle 3, lineage SR-AB22) VH: QVQLVESGGGVVQPGRSLRLSCAASGFTFRSYVMHWVRQAPGKGLEWVAVISHEGSLKYYADSVKGRFTISRDNSKNTLYLQMNSLRAEDTAVYYCAVPRIAARRGGFGYWGQGTLVTVSS VL: NFMLTQPHSVSESPGKTVTISCTRSSGLIDDNYVQWYQQRPGSSPTTVIYEDAQRPSGVPDRFSGSIDSSSNSASLTISGLKTEDEADYYCQSYDHDEQGVVFGGGTKLTVL | 0.342 | 0.232 | 0.136 | 6e-05 | 441000 | 0.205 | 6e-05 | 292000 |  |  | 389 | 0.479 | 1.01 nM | 389 |  |  | 
6 | SR-AB38 (antibody, IgG1, V domains shown, Cycle 3, lineage SR-AB22) VH: QVQLVESGGGVVQPGRSLRLSCAASGFTFRSYVMHWVRQAPGKGLEWVAVISHEGSLKYYADSVKGRFTISRDNSKNTLYLQMNSLRAEDTAVYYCAVPRIAARRGGFGYWGQGTLVTVSS VL: NFMLTQPHSVSESPGKTVTISCTRSSGSIDNNYVQWYQQRPGSSPTTVIYEDFIRPSGVPDRFSGSIDSSSNSASLTISGLKTEDEADYYCQSYDDDLQGVVFGGGTKLTVL | 0.331 | 0.391 | 0.145 | 7.26e-05 | 502000 | 0.357 | 0.000117 | 327000 |  |  | 8.42 |  |  | 8.42 |  |  | 
7 | SR-AB37 (antibody, IgG1, V domains shown, Cycle 3, lineage SR-AB22) VH: QVQLVESGGGVVQPGRSLRLSCAASGFTFRSYVMHWVRQAPGKGLEWVAVISHEGSLKYYADSVKGRFTISRDNSKNTLYLQMNSLRAEDTAVYYCAVPRIAARRGGFGYWGQGTLVTVSS VL: NFMLTQPHSVSESPGKTVTISCTRSSGLIDDNYVQWYQQRPGSSPTTVIYEDNQRPSGVPDRFSGSIDSSSNSASLTISGLKTEDEADYYCQSYDSDLQRVVFGGGTKLTVL | 0.325 | 0.384 | 0.139 | 7.58e-05 | 545000 | 0.328 | 0.000118 | 360000 |  |  | 36.1 | 0.543 | 1.93 nM | 36.1 |  |  | 
8 | SR-AB45 (antibody, IgG1, V domains shown, Cycle 3, lineage SR-AB23) VH: QVQLVESGGGVVQPGRSLRLSCAASGFTFRSYVMHWVRQAPGKGLEWVAVISHEGSLKYYADSVKGRFTISRDNSKNTLYLQMNSLRAEDTAVYYCARPRIAARRGGFGYWGQGTLVTVSS VL: NFMLTQPHSVSESPGKTVTISCTRSSGAIDDNYVQWYQQRPGSSPTTVIYEDFQRPSGVPDRFSGSIDSSSNSASLTISGLKTEDEADYYCQSYDDDLQGVVFGGGTKLTVL | 0.269 | 0.193 | 0.122 | 6e-05 | 491000 | 0.193 | 6e-05 | 310000 |  |  | 195 |  |  | 195 | 0.264 | 2.25 | 
9 | SR-AB41 (antibody, IgG1, V domains shown, Cycle 3, lineage SR-AB23) VH: QVQLVESGGGVVQPGRSLRLSCAASGFTFRSYVMHWVRQAPGKGLEWVAVISHEGSLKYYADSVKGRFTISRDNSKNTLYLQMNSLRAEDTAVYYCARPRIAARRGGFGYWGQGTLVTVSS VL: NFMLTQPHSVSESPGKTVTISCTRSSGNIDNNYVQWYQQRPGSSPTTVIYEDNQRPSGVPDRFSGSIDSSSNSASLTISGLKTEDEADYYCQSYDYDNQAVVFGGGTKLTVL | 0.717 | 0.404 | 0.235 | 6e-05 | 255000 | 0.296 | 6e-05 | 203000 |  |  | 764 |  |  | 764 | 0.409 | 1.54 | 
10 | SR-AB40 (antibody, IgG1, V domains shown, Cycle 3, lineage SR-AB23) VH: QVQLVESGGGVVQPGRSLRLSCAASGFTFRSYVMHWVRQAPGKGLEWVAVISHEGSLKYYADSVKGRFTISRDNSKNTLYLQMNSLRAEDTAVYYCARPRIAARRGGFGYWGQGTLVTVSS VL: NFMLTQPHSVSESPGKTVTISCTRSSGNIDNNYVQWYQQRPGSSPTTVIYEDNQRPSGVPDRFSGSIDSSSNSASLTISGLKTEDEADYYCQSYDYSNQGVVFGGGTKLTVL | 1.16 | 1.08 | 0.333 | 6.07e-05 | 182000 | 0.401 | 6e-05 | 150000 |  |  |  |  |  |  | 0.333 | 2.1 | no binding (tested: 200 nM)
